US20140193378A1 (UNIVERSITY OF MIAMI, published 2014)
Read-outs that look alike come from different tables or passages of the source. Non-standard residues stand in square brackets, D forms with d. *: point of attachment. Phe(F5) = N[C@@H](Cc1c(F)c(F)c(F)c(F)c1F)C(=O)O; Desaminotyrosyl = O=C(CCc1ccc(O)cc1)*; Agmatine = N=C(N)NCCCCN*; Nle = CCCC[C@H](N)C(=O)O; Orn = NCCC[C@H](N)C(=O)O; Abu = CC[C@H](N)C(=O)O; GABA = NCCCC(=O)O

B1: P-25502 [Dat^1, D-Ala^2, Fpa5^6, Orn^12, Abu^15, Orn^21, Nle^27, Gab^30]hGHRH(1-30)NH2 (peptide)
peptide: [Desaminotyrosyl][dA]DAI[Phe(F5)]TNSYR[Orn]VL[Abu]QLSAR[Orn]LLQDI[Nle]SR[GABA]-NH2
SMILES: CCCC[C@H](NC(=O)[C@@H](NC(=O)[C@H](CC(=O)O)NC(=O)[C@H](CCC(N)=O)NC(=O)[C@H](CC(C)C)NC(=O)[C@H](CC(C)C)NC(=O)[C@H](CCCN)NC(=O)[C@H](CCCNC(=N)N)NC(=O)[C@H](C)NC(=O)[C@H](CO)NC(=O)[C@H](CC(C)C)NC(=O)[C@H](CCC(N)=O)NC(=O)[C@H](CC)NC(=O)[C@H](CC(C)C)NC(=O)[C@@H](NC(=O)[C@H](CCCN)NC(=O)[C@H](CCCNC(=N)N)NC(=O)[C@H](Cc1ccc(O)cc1)NC(=O)[C@H](CO)NC(=O)[C@H](CC(N)=O)NC(=O)[C@@H](NC(=O)[C@H](Cc1c(F)c(F)c(F)c(F)c1F)NC(=O)[C@@H](NC(=O)[C@H](C)NC(=O)[C@H](CC(=O)O)NC(=O)[C@@H](C)NC(=O)CCc1ccc(O)cc1)[C@@H](C)CC)[C@@H](C)O)C(C)C)[C@@H](C)CC)C(=O)N[C@@H](CO)C(=O)N[C@@H](CCCNC(=N)N)C(=O)NCCCC(N)=O
notes: also called Peptide 25502; MR-502
B2: P-20350 [Dat^1, D-Ala^2, Gln^8, Orn^12, Abu^15, Orn^21, Nle^27, Asp^28, Agm^29]hGHRH(1-29)NH2 (peptide)
peptide: [Desaminotyrosyl][dA]DAIFTQSYR[Orn]VL[Abu]QLSAR[Orn]LLQDI[Nle]D[Agmatine]
SMILES: CCCC[C@H](NC(=O)[C@@H](NC(=O)[C@H](CC(=O)O)NC(=O)[C@H](CCC(N)=O)NC(=O)[C@H](CC(C)C)NC(=O)[C@H](CC(C)C)NC(=O)[C@H](CCCN)NC(=O)[C@H](CCCNC(=N)N)NC(=O)[C@H](C)NC(=O)[C@H](CO)NC(=O)[C@H](CC(C)C)NC(=O)[C@H](CCC(N)=O)NC(=O)[C@H](CC)NC(=O)[C@H](CC(C)C)NC(=O)[C@@H](NC(=O)[C@H](CCCN)NC(=O)[C@H](CCCNC(=N)N)NC(=O)[C@H](Cc1ccc(O)cc1)NC(=O)[C@H](CO)NC(=O)[C@H](CCC(N)=O)NC(=O)[C@@H](NC(=O)[C@H](Cc1ccccc1)NC(=O)[C@@H](NC(=O)[C@H](C)NC(=O)[C@H](CC(=O)O)NC(=O)[C@@H](C)NC(=O)CCc1ccc(O)cc1)[C@@H](C)CC)[C@@H](C)O)C(C)C)[C@@H](C)CC)C(=O)N[C@@H](CC(=O)O)C(=O)NCCCCNC(=N)N
notes: also called Peptide 20350

Assays:
[1] = biological target: T1, human GHRH receptor (human pituitary membrane homogenates) (human, UniProt Q02643 23-423); test: radioligand competition vs 125I-JV-1-42 (0.2 nM), human pituitary membranes
T1 construct: whole, on cells; Native receptor in human pituitary membrane homogenates, not on intact cells; also called hGHRH receptor
T1 sequence (looked up): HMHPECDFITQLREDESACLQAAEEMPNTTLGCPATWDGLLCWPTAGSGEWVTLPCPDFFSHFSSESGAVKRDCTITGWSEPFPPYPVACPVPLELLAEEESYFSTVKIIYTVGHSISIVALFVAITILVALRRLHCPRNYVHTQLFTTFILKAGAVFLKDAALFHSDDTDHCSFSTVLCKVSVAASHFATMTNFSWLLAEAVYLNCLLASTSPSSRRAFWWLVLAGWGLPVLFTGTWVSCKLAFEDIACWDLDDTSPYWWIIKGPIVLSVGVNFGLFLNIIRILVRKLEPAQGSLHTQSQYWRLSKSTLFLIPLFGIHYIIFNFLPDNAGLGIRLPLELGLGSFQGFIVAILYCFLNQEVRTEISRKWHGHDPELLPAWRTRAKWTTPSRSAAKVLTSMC
Excerpt: (§1) Normal human pituitaries were purchased from the National Hormone and Peptide Program (A. F. Parlow, Los Angeles, County Harbor-UCLA Medical Center, Torrance, Calif.).

[2] = biological target: T1, human GHRH receptor (human pituitary …); test: as above; remark: listed apart in the source
Excerpt: as §1

Row | Binder | Relative affinity (Binding potency) vs GHRH [1] [fold] | Relative affinity (Binding potency) vs JI-38 [1] [fold] | Relative affinity (Binding potency) vs JI-38 [2] [fold]
1 | B1 | 58 | 24.4 | 13.2
2 | B2 | 102 | 42.7 | 8.37
